Positions of bridges follow the written chain, without caps; N, C: chain ends. No end group written: not given here.
Each binder was assayed against T1, hu-IL-2Rβ subunit (human, UniProt P14784 27-240, limits assumed) (assay: phage ELISA competition assay).
T1 construct: also called human interleukin-2 receptor subunit β; CD122
T1 sequence (looked up): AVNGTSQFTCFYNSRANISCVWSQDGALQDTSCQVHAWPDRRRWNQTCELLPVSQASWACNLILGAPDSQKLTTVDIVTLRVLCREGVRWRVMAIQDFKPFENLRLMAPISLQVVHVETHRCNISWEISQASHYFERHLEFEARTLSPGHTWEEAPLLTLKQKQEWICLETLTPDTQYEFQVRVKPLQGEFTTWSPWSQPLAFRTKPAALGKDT
For WQPCWRAKLGELCDLE [SEQ ID NO 192], the IC50 was < 100 µM.
With WKPCFIASLGELCDLDQGSVEV [SEQ ID NO 227] the IC50 was < 100 µM.
With IRSCSPCWSADVGELCDLECEW [SEQ ID NO 91] the IC50 was < 100 µM.
WKPCWIADLGELCDLAPAWHEY [SEQ ID NO 216] was tested, and the IC50 was < 100 µM.
In the case of EQGMLGYFPCWKALLGDVCDLD [SEQ ID NO 200], the IC50 is reported as < 100 µM.
In the case of FFPCWMGQLGDLCDLEVRSMQK [SEQ ID NO 230], the IC50 is reported as < 100 µM.
For WFPCWMAQLGQLCDLE [SEQ ID NO 89], the IC50 was < 100 µM.
AYRIYPCWKAQLGELCDLDNAD [SEQ ID NO 239] was tested, and the IC50 was < 100 µM.
For WKPCWMARLGELCDIEDTKVNA [SEQ ID NO 213], the IC50 was < 100 µM.
GAGVLHRWPCWMAKLGDLCDLD [SEQ ID NO 198] was tested, and the IC50 was < 100 µM.
In the case of SNPCWMAQLWELCDLE [SEQ ID NO 182], the IC50 is reported as < 100 µM.
For IPKGESWFPCWMAAMGELCDLE (disulfide 10-19 (inferred)) [SEQ ID NO 208], the IC50 was < 100 µM.
WRPCWRAYLGELCDLEAMPRAT [SEQ ID NO 90] was tested, and the IC50 was < 100 µM.
In the case of WQPCWMAQLGELCDLE [SEQ ID NO 184], the IC50 is reported as < 100 µM.
With YKPCQMAQLGELCDLDVDNKAE [SEQ ID NO 211] the IC50 was < 100 µM.
For GYPCWLAQLGDYCDLDAGAPSW [SEQ ID NO 219], the IC50 was < 100 µM.
In the case of YKPCWIAQLGELCELE [SEQ ID NO 183], the IC50 is reported as < 100 µM.
VMSPTRWLPCWIAKLGELCDLE [SEQ ID NO 88] was tested, and the IC50 was < 100 µM.
For ALVGGTFYPCYVAHLGELCDIE (disulfide 10-19 (inferred)) [SEQ ID NO 204], the IC50 was < 100 µM.
In the case of QPCWLAQVGDLCDLLWPGPL [SEQ ID NO 79], the IC50 is reported as < 100 µM.
With FKPCWIANLGELCDMDDERSSE (disulfide 4-13 (inferred)) [SEQ ID NO 212] the IC50 was < 100 µM.
With GSGWQPCWMADLGELCDLDNEK [SEQ ID NO 236] the IC50 was < 100 µM.
For WLPCWLAHLGDICDLQ [SEQ ID NO 195], the IC50 was < 100 µM.
WYPCWMAQLGELCDHEWPSYGA [SEQ ID NO 233] was tested, and the IC50 was < 100 µM.
RLPCWRAQLGDLCELDWGLDMG [SEQ ID NO 217] was tested, and the IC50 was < 100 µM.
For WYPCWIAQLGEVCDLEKQTGSV [SEQ ID NO 209], the IC50 was < 100 µM.
For IDRADGWKPCWIAQVGELCVLE [SEQ ID NO 205], the IC50 was < 100 µM.
YRRERVEFPCWLAQLGELCDKE [SEQ ID NO 206] was tested, and the IC50 was < 100 µM.
With FYPCWKARLGELCELEELRGYY [SEQ ID NO 215] the IC50 was < 100 µM.
With WKPCWRAQLGELCDLELGPSER [SEQ ID NO 229] the IC50 was < 100 µM.
In the case of WTPCWIAHLGDLCDLEPQDDTD [SEQ ID NO 226], the IC50 is reported as < 100 µM.
For WKPCWLAQLGELCDLERPSTTS [SEQ ID NO 221], the IC50 was < 100 µM.
For SLPCWMAQLGELCDLV [SEQ ID NO 189], the IC50 was < 100 µM.
For SWPCWMAQLGDLCDLDGSAGAS [SEQ ID NO 220], the IC50 was < 100 µM.
With MGSWLPCWMAQLGDLCDVEGGM [SEQ ID NO 234] the IC50 was < 100 µM.
With WYPCWMAHLGDVCDLESFGQTE [SEQ ID NO 210] the IC50 was < 100 µM.
With QRNSFPCWLAQLGDLCDLGDWA [SEQ ID NO 240] the IC50 was < 100 µM.
With WFPCWMAQLGDLCELEPDSVPA [SEQ ID NO 225] the IC50 was < 100 µM.
With SLPCWIARLGELCDLDGYDGEE [SEQ ID NO 214] the IC50 was < 100 µM.
With SKPCWMAQLGELCDLDVWNLQM [SEQ ID NO 218] the IC50 was < 100 µM.
In the case of YWPCSMASLGELCDLEWQGRLP [SEQ ID NO 231], the IC50 is reported as < 100 µM.
In the case of WLPCWMAKLGDLCELE [SEQ ID NO 186], the IC50 is reported as < 100 µM.
For RRSWYPCRIAQLGELCDLDPRV (disulfide 7-16 (inferred)) [SEQ ID NO 238], the IC50 was < 100 µM.
With LHPCWMAQLGELCDLE (disulfide 4-13 (inferred)) [SEQ ID NO 188] the IC50 was < 100 µM.
For WKPCWMAALGELCDLERSVGKV [SEQ ID NO 228], the IC50 was < 100 µM.
For WYSCGKAQLGELCDLDVESQPG [SEQ ID NO 222], the IC50 was < 100 µM.
WYPCWMAQLGELCDLQTMGYSH [SEQ ID NO 93] was tested, and the IC50 was < 100 µM.
With WKPCWLAQLGDLCEME [SEQ ID NO 185] the IC50 was < 100 µM.
QKGFLPCWRAQLGQLCDMESQY [SEQ ID NO 235] was tested, and the IC50 was < 100 µM.
WDVHAIRNPCWLAKLGDLCDLD [SEQ ID NO 197] was tested, and the IC50 was < 100 µM.
With WKPCWMAGLGELCELD [SEQ ID NO 190] the IC50 was < 100 µM.
For SKPCWLAQLGDLCDFDWTAADH [SEQ ID NO 224], the IC50 was < 100 µM.
With WWPCSSAELGEICDFD [SEQ ID NO 191] the IC50 was < 100 µM.
For DTGRDGWKPCWMALLGELCELE [SEQ ID NO 199], the IC50 was < 100 µM.
With WNPCWIAQLGDLCDMV [SEQ ID NO 194] the IC50 was < 100 µM.
With AVSHGNWLPCYIAQLGELCDLD [SEQ ID NO 207] the IC50 was < 100 µM.
WRVTASLQPCWMAQLGELCDLN [SEQ ID NO 201] was tested, and the IC50 was < 100 µM.
WLPCWMAQLGELCVME [SEQ ID NO 187] was tested, and the IC50 was < 100 µM.
For TVGQFEWYPCSTAQLGELCDLD [SEQ ID NO 203], the IC50 was < 100 µM.
In the case of GQVVETSLPCWEAQLGELCVLD [SEQ ID NO 202], the IC50 is reported as < 100 µM.
In the case of SGHWYPCWMARLGELCDMEERA [SEQ ID NO 92], the IC50 is reported as < 100 µM.
For WLSPPSYLPCWMAQLGELCDLV [SEQ ID NO 196], the IC50 was < 100 µM.
In the case of WRRWYPCWMAQLGELCDLDQWT [SEQ ID NO 237], the IC50 is reported as < 100 µM.
WYPCYMASLGELCDLQSSISPR [SEQ ID NO 232] was tested, and the IC50 was < 100 µM.
With WSPCWIATLGELCDLD [SEQ ID NO 193] the IC50 was < 100 µM.
YVPCYMARLGELCELEANRPGQ [SEQ ID NO 223] was tested, and the IC50 was < 100 µM.
